Data reported in US20240158538A1 (HUMMINGBIRD BIOSCIENCE HOLDINGS PTE, published 2024).
Numbering of substitutions follows the chain as printed. Read-outs that look alike come from different tables or passages of the source.

How the values were obtained:
[1] = biological target: T1, CTLA4 (ELISA coat) (human, UniProt P16410 36-162, limits assumed); experiment: ELISA, plate coated with CTLA4
T1 construct: Species read from the list 'human VISTA, PD-1, PD-L1, ...'

[2] = biological target: T2, human PD-L1 (ELISA coat) (human, UniProt Q9NZQ7 19-239); experiment: ELISA, plate coated with B7H1 (PDL1)
[3] = biological target: T3, PD-1 (ELISA coat) (human, UniProt Q15116 25-167, limits assumed); experiment: ELISA, plate coated with PD1
T3 construct: Species read from the list 'human VISTA, PD-1, PD-L1, ...'

[4] = biological target: T4, B7H4 (ELISA coat) (human, UniProt Q7Z7D3 25-258, limits assumed); experiment: ELISA, plate coated with B7H4
T4 construct: Species read from the list 'human VISTA, PD-1, PD-L1, ...'; also called VTCN1
T4 sequence (looked up): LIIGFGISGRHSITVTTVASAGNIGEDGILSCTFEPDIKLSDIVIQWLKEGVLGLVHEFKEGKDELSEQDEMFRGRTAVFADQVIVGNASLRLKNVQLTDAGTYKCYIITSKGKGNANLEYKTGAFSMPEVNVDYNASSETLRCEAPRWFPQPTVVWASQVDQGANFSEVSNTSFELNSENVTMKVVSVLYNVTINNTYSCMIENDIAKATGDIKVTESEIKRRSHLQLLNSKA

[5] = biological target: T5, B7H7 (ELISA coat) (human, UniProt Q9UM44 23-344, limits assumed); experiment: ELISA, plate coated with B7H7
T5 construct: Species read from the list 'human VISTA, PD-1, PD-L1, ...'; also called HHLA2
T5 sequence (looked up): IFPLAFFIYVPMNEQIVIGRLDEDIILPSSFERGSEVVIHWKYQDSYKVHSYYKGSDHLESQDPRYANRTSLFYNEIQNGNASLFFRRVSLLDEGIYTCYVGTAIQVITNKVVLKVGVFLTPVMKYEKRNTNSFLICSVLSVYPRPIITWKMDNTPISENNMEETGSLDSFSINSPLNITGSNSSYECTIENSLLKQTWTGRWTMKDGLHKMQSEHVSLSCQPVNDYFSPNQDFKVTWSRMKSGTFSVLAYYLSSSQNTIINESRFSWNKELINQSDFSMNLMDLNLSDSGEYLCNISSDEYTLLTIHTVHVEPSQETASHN

[6] = biological target: T6, B7H6 (ELISA coat) (human, UniProt Q68D85 25-262, limits assumed); experiment: ELISA, plate coated with B7H6
T6 construct: Species read from the list 'human VISTA, PD-1, PD-L1, ...'; also called NCR3LG1
T6 sequence (looked up): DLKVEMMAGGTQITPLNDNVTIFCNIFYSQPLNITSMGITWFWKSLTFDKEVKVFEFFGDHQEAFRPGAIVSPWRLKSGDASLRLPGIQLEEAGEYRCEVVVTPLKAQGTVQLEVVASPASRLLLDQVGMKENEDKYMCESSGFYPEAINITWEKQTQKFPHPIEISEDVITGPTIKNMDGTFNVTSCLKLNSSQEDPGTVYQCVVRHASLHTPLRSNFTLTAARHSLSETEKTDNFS

[7] = biological target: T7, B7H3 (ELISA coat) (human, UniProt Q5ZPR3 29-461, limits assumed); experiment: ELISA, plate coated with B7H3
T7 construct: Species read from the list 'human VISTA, PD-1, PD-L1, ...'; also called CD276
T7 sequence (looked up): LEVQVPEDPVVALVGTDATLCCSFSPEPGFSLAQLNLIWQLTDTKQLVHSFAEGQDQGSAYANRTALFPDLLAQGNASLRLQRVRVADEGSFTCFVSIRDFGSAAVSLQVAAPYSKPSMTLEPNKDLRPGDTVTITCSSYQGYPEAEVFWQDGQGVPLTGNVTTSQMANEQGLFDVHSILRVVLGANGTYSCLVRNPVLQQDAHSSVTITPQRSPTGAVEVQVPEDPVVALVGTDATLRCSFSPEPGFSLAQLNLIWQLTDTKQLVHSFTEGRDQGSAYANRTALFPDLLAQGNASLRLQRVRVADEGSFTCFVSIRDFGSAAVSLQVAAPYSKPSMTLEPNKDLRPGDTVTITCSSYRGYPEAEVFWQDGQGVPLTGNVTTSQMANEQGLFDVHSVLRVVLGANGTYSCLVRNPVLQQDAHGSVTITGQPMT

[8] = biological target: T6, B7H6 (ELISA coat); experiment: ELISA, plate coated with B7H6; remark: listed apart in the source
[9] = biological target: T4, B7H4 (ELISA coat); experiment: ELISA, plate coated with B7H4; remark: listed apart in the source
[10] = biological target: T3, PD-1 (ELISA coat); experiment: ELISA, plate coated with PD1; remark: listed apart in the source
[11] = biological target: T5, B7H7 (ELISA coat); experiment: ELISA, plate coated with B7H7; remark: listed apart in the source
[12] = biological target: T1, CTLA4 (ELISA coat); experiment: ELISA, plate coated with CTLA4; remark: listed apart in the source
[13] = biological target: T7, B7H3 (ELISA coat); experiment: ELISA, plate coated with B7H3; remark: listed apart in the source
[14] = biological target: T2, human PD-L1 (ELISA coat); experiment: ELISA, plate coated with B7H1 (PDL1); remark: listed apart in the source
[15] = biological target: T6, B7H6 (ELISA coat); experiment: ELISA, plate coated with B7H6; remark: listed apart in the source
[16] = biological target: T1, CTLA4 (ELISA coat); experiment: ELISA, plate coated with CTLA4; remark: listed apart in the source
[17] = biological target: T2, human PD-L1 (ELISA coat); experiment: ELISA, plate coated with B7H1 (PDL1); remark: listed apart in the source
[18] = biological target: T7, B7H3 (ELISA coat); experiment: ELISA, plate coated with B7H3; remark: listed apart in the source
[19] = biological target: T3, PD-1 (ELISA coat); experiment: ELISA, plate coated with PD1; remark: listed apart in the source
[20] = biological target: T5, B7H7 (ELISA coat); experiment: ELISA, plate coated with B7H7; remark: listed apart in the source
[21] = biological target: T4, B7H4 (ELISA coat); experiment: ELISA, plate coated with B7H4; remark: listed apart in the source
[22] = biological target: T3, PD-1 (ELISA coat); experiment: ELISA, plate coated with PD1; remark: listed apart in the source
[23] = biological target: T5, B7H7 (ELISA coat); experiment: ELISA, plate coated with B7H7; remark: listed apart in the source
[24] = biological target: T7, B7H3 (ELISA coat); experiment: ELISA, B7H3 coated
[25] = biological target: human HER3 (human, UniProt P21860 20-643); experiment: ELISA, human HER3 coated
[26] = biological target: T4, B7H4 (ELISA coat); experiment: ELISA, plate coated with B7H4; remark: listed apart in the source
[27] = biological target: T6, B7H6 (ELISA coat); experiment: ELISA, plate coated with B7H6; remark: listed apart in the source
[28] = biological target: T2, human PD-L1 (ELISA coat); experiment: ELISA, human PD-L1 coated
[29] = biological target: T1, CTLA4 (ELISA coat); experiment: ELISA, CTLA4 coated

T3 sequence (Q15116 25-167 limits assumed): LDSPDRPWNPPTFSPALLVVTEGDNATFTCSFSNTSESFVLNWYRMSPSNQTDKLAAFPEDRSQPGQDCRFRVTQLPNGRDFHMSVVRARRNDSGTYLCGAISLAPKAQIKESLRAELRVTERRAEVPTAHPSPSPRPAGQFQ
T1 sequence (P16410 36-162 limits assumed): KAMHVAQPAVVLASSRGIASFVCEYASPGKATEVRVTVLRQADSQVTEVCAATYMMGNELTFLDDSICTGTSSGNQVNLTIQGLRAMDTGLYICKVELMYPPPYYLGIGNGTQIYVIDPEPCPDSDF
T2 sequence (Q9NZQ7 19-239 limits assumed): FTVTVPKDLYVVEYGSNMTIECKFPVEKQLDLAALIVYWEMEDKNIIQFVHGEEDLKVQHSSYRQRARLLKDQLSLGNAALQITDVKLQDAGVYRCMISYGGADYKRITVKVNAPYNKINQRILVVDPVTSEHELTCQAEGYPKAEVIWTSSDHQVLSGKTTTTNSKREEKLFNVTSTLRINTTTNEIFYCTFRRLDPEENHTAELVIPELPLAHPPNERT

B1: anti-VISTA clone V4-C24 IgG1 (antibody, V domains shown)
VH: QVQLQESGPGLVKPSDTLSLTCTVSGYSITSDYTWNWIRQTPGKGLEWIGHITYSGSVSYNPSLRSRVTISRDTSKNQFSLKLSSVTAADTATYSCARALYYPWYFDVWGTGTTVTVSS
VL: EIVLTQSPATLSLSPGERATLSCRASSSVGYIHWYQQKPGQAPRPLIYTTSYRATGIPARFSGSGSGTDNTLTISSLEPEDSAVYYCQQWSSYPPITFGGGTKLEVKR
notes: Human IgG1/kappa
binding result [1]: no binding (tested: log -7.5 (about 3e-8 M))
binding result [2]: no binding (tested: log -7.5 (about 3e-8 M))
binding result [3]: no binding (tested: log -7.5 (about 3e-8 M))
binding result [4]: no binding (tested: log -7.5 (about 3e-8 M))
binding result [5]: no binding (tested: log -7.5 (about 3e-8 M))
binding result [6]: no binding (tested: log -7.5 (about 3e-8 M))
binding result [7]: no binding (tested: log -7.5 (about 3e-8 M))

B2: anti-VISTA clone V4-C26 IgG1 (antibody, V domains shown)
VH: B1 VH
VL: B1 VL with L46I, Y52N
notes: Human IgG1/kappa
binding result [8]: no binding (tested: log -7.5 (about 3e-8 M))
binding result [9]: no binding (tested: log -7.5 (about 3e-8 M))
binding result [10]: no binding (tested: log -7.5 (about 3e-8 M))
binding result [11]: no binding (tested: log -7.5 (about 3e-8 M))
binding result [12]: no binding (tested: log -7.5 (about 3e-8 M))
binding result [13]: no binding (tested: log -7.5 (about 3e-8 M))
binding result [14]: no binding (tested: log -7.5 (about 3e-8 M))

B3: anti-VISTA clone V4-C27 IgG1 (antibody, V domains shown)
VH: B1 VH
VL: B1 VL with T49A, S51Y, Y52N
notes: Human IgG1/kappa
binding result [15]: no binding (tested: log -7.5 (about 3e-8 M))
binding result [16]: no binding (tested: log -7.5 (about 3e-8 M))
binding result [17]: no binding (tested: log -7.5 (about 3e-8 M))
binding result [18]: no binding (tested: log -7.5 (about 3e-8 M))
binding result [19]: no binding (tested: log -7.5 (about 3e-8 M))
binding result [20]: no binding (tested: log -7.5 (about 3e-8 M))
binding result [21]: no binding (tested: log -7.5 (about 3e-8 M))

B4: anti-VISTA clone 4M2-C12 IgG1 (antibody)
heavy: not shown
light: DIVITQTPAILSTSPGEKVTMTCRASSSVGYIHWYQQKPGSSPKPWIYATSNLASGVPARFSGSGSGTSNSLTITRVEAEDAATYYCQQWSSYPPITFGGGTKLEVKRTVAAPSVFIFPPSDEQLKSGTASVVCLLNNFYPREAKVQWKVDNALQSGNSQESVTEQDSKDSTYSLSSTLTLSKADYEKHKVYACEVTHQGLSSPVTKSFNRGEC
notes: also called V4; 4M2-C12-hIgG1
binding result [22]: no binding (tested: log -7.5 (about 3e-8 M))
binding result [23]: no binding (tested: log -7.5 (about 3e-8 M))
binding result [24]: no binding (tested: log M about -7.5)
binding result [25]: no binding (tested: log M about -6.2)
binding result [26]: no binding (tested: log -7.5 (about 3e-8 M))
binding result [27]: no binding (tested: log -7.5 (about 3e-8 M))
binding result [28]: no binding (tested: log M about -6.7)
binding result [29]: no binding (tested: log M about -7.5)
